Laboratory results reported in patent US20060122105A1, “Method of improing the growth performance of an animal” (priority 2001, published 2006).

Experiments:
Format in all cases: in vivo
[1] = system: Actinobacillus pleuropneumoniae (App); assay: App challenge of pigs, therapeutic IL-1ra at low and high doses or Excenel (Example 7); conditions: for feed consumed: FIG. 52
Method: Male pigs with a mean starting weight of 34.6 kg, were allocated to 4 treatment groups of 9 pigs each. Treatments were saline, IL-1ra at 2 μg per kg, IL-1ra at 10 μg per kg and Excenel, the current clinical treatment for App infection. Pigs were housed in pens of 3 pigs, with 3 replicates of each. Pigs were provided with pelleted feed and water ad libitum. The starting weights of each treatment group and each pen were equal prior to the start of the trial.
Pigs were anaesthetised and infected intratracheally with 7.5×10^5 pfu on day 0. Recombinant IL-1ra and saline were administered as 2ml doses, given subcutaneously behind the ear. Excenel was administered to pigs according to the manufacturer's instructions. Pigs were treated with IL-1ra, saline or Excenel at 24 h, 48 h and one week after challenge with App.
Blood was sampled from pigs by venipuncture at 0 h, 24 h, 48 h, 1 week and 2 weeks after infection. Blood was assayed for immunological parameters as previously described. Pigs were weighed the day prior to challenge, and days 6 and 13 after challenge.

haemorrhagic E. coli = assay: Haemorrhagic E. coli challenge of weaner pigs, prophylactic treatment (Example 3); conditions: for reduction of E. coli culture score at post-mortem compared to saline: FIG. 19
Method: Male weaner pigs, with a mean weight of 5.4 kg were allocated to groups of 8, with the mean weight being equalised between groups. Pigs were housed in group pens containing a replicate from each treatment group. Pigs were provided with pelleted feed and water ad libitum.
Pigs were treated with recombinant saline, IL-1ra or the antibiotic, Apralan, and challenged with E. coli according to the schedule outlined in Table 3. Saline, or 200 μg of IL-1ra were delivered intramuscularly in 1 ml doses. Apralan was delivered orally according to manufacturer's instructions at a dose of 12 mg/kg. E. coli challenges were delivered orally in an 8 ml dose containing 10^8 cfu/ml. Blood was sampled from pigs by venipuncture at −2 days, day 0, and +6 days from initial challenge with E. coli as outlined in Table 3. Blood was assayed for immunological parameters including white blood cell number, differential cell counts, lymphocyte subset enumeration, IgG levels and cytokine production. Pigs were weighed at day −2 and at the end of the trial on day 6.
Faecal samples were taken from each pig daily for 5 days from day 2 to day 6 after challenge; these samples were cultured on sheep blood agar to quantify E. coli load. Growth on sheep blood agar was scored from 0 to 5 (where 0 was no growth, 1 signified growth in the primary inoculum, 2 signified growth in the first streak, 3 signified growth in the 2nd streak, 4 signified growth in the 3rd streak, and 5 signified growth of E. coli in the final streak). The condition of faeces was noted as normal, wet or diarrhoea, as an indication of clinical signs.
At the conclusion of the experiment on day 7, pigs were euthanased and swabs were taken from different areas in the gastro-intestinal tract, including the small intestine (25%, 50% and 75% along the length of the small intestine), the caecum and colon, and from the faeces in situ. These post-mortem swabs were cultured on sheep blood agar to quantify E. coli load as described above.

[2] = system: Brachyspira (Serpulina) hyodysenteriae; assay: Swine dysentery challenge of weaner pigs, prophylactic treatment (Example 4); conditions: for reduction in spirochaete culture scores at post-mortem compared to saline: FIG. 25
Method: Male pigs with a mean starting weight of 6.5 kg, were allocated to treatment groups consisting of eight pigs. Pigs were housed in group pens, with each pen containing a replicate from each of the treatment groups. One group of 8 pigs was housed in a separate room and left uninfected to act as untreated controls. Pigs were provided with pelleted feed and water ad libitum.
Prior to swine dysentery challenge, pigs were treated with 200 μg recombinant IL-1ra or 1 ml saline via intramuscular injection. Lincocin was delivered as a 2 ml intramuscular injection according to the manufacturer's instructions. Cytokines, antibiotics and challenges were performed at intervals described in the experimental protocol outlined in Table 5. Pigs were infected with Brachyspira hyodysenteriae at day 0, day 1 and day 2, given as an oral bolus of 120 ml of spirochaete culture in log phase of growth, containing approximately 10^8 cells.
Faecal swabs and blood samples were taken from each pig at intervals described in Table 5. Faecal swabs were cultured for the presence of spirochaetes. Blood samples were assayed for immunological parameters as described in Example 3 above. Pigs were weighed at weekly intervals throughout the experiment, which was terminated by euthanasia on days 19 and 20 after the initial challenge. At post-mortem, swabs from areas of the hindgut were cultured for the presence of spirochaetes, and the gross pathological condition of the gastro-intestinal tissue noted.

[3] = Growth performance of pigs treated with IL-1ra or saline at zero, reduced and normal antibiotic medication (Example 2); conditions: for total group weight at the end of the weaner phase: FIG. 10
Method: Recombinant porcine IL-1ra was expressed in E. coli and purified using a polyhis tag system. IL-1ra was tested for biological activity in a bioassay prior to the start of the experiment.
The experiment was undertaken in a commercial environment where the pigs were weaned at 28 days of age. All injections were 1 ml. There were 16 pigs per treatment, 8 males and 8 females per treatment. The mean weight of treatment groups were similar at the start of the experiment.
A. Saline injection, 1 ml IM neck muscle.
B. 100 ug IL-1ra injection, 1 ml IM neck muscle. Injections were administered twice weekly during the weaner stage, and weekly throughout the grower and finisher stages.
Pigs were weaned and weighed at the commencement of the experiment (D0, W0). Weights were recorded weekly throughout the weaner phase (W0-W6), during the grower phase (W9), at the end of the grower phase (W13), during the finisher phase (W 16) and at the end of the finisher phase prior to slaughter at W19. Blood samples were collected at the start of the experiment and at the end of the weaner phase, grower phase and finisher phase. Haematology and immunological analyses were performed. At slaughter, carcass characteristics including P2 backfat measurements and dressed carcass weight were noted.

B1: IL-1ra: Recombinant porcine IL-1ra expressed in E. coli and purified using a polyhis tag system (protein, UniProt Q29056 26-177, looked up)
Interleukin-1 receptor …: HPLGKRPCRMQAFRIWDVNQKTFYLRNNQLVAGYLQGPNTKLEEKIDVVPVEPHFVFLGIHGGKLCLSCVKSGDEMKLQLDAVNITDLRKNSEQDKRFTFIRSDSGPTTSFESAACPGWFLCTALEADQPVGLTNTPKAAVKVTKFYFQQDQ
modifications: polyhistidine tag
notes: Recombinant porcine IL-1ra expressed in E. coli and purified using a polyhis tag system
With B1 the feed consumed ([1]; IL-1ra at high dose (10 μg per kg)) was 1.8 kg of feed per day, the “weight gained in the second week of challenge” value ([1]; IL-1ra at low dose (2 μg per kg), Excenel per manufacturer's instructions, FIG. 51) was 5.7 kg and the feed consumed ([1]; IL-1ra at low dose (2 μg per kg), Excenel per manufacturer's instructions) was 1.7 kg of feed per day. The “production of IL-8 in the caudal-mediastinal lymph nodes” value ([1]; low dose IL-1ra, Excenel, compared to saline treated controls) was “reduced the production of IL-8”, the “feed conversion ratio (FCR, feed:gain)” value ([1]; low dose IL-1ra, FIG. 53) was 1.6 and the “proliferative responses of lymphocytes in the presence of killed App” value ([1]; low dose IL-1ra, FIG. 54) was “tended to have improved proliferative responses of lymphocytes”. For the same molecule, the “production of the pro-inflammatory cytokine IL-8 in lung tissue (mRNA at post-mortem)” value ([1]; low doses, compared to other treatments, FIG. 55) was “reduced the production”, the “decrease in faecal shedding, faecal scores tallied over the entire challenge period, compared to saline treated controls” value (haemorrhagic E. coli; 5 days after E. coli challenge, FIG. 15) was 37% and the “recorded cases of wet faeces and diarrhoea (clinical signs)” value (haemorrhagic E. coli; 5 days after E. coli challenge, FIG. 16) was “fewer recorded cases of wet faeces and diarrhoea”. For the same molecule, the “group mean total E. coli culture score, all gut areas at post-mortem” value (haemorrhagic E. coli; FIG. 20) was “less than 10 out of a possible 30”, the “reduction of E. coli culture score at post-mortem compared to saline” value (shortened to “reduction of E. coli culture score”) (haemorrhagic E. coli; anterior part of the small intestine) was 71% and the “reduction of E. coli culture score” value (haemorrhagic E. coli; caecum) was 39%. The “reduction of E. coli culture score” value (haemorrhagic E. coli; colon) was 44%, the “reduction in clinical signs compared to saline controls” value (haemorrhagic E. coli; faecal condition, FIG. 17) was 64% and the “days on which bacterial shedding was significantly less than saline treated controls” value (haemorrhagic E. coli; faecal cultures) was 3/5. The “reduction of E. coli culture score” value (haemorrhagic E. coli; faeces in situ) was 23%, the “reduction of E. coli culture score” value (haemorrhagic E. coli; mid small intestine) was 51% and the “reduction in E. coli in the hindgut area (caecum and colon) compared to saline controls” value (haemorrhagic E. coli; post-mortem, FIG. 23) was 42%. The “reduction of bacterial load in the small intestine (foregut) compared with saline controls” value (haemorrhagic E. coli; post-mortem, FIG. 23) was 55%, the “reduction of E. coli culture score” value (haemorrhagic E. coli; posterior small intestine) was 47% and the “reduction in the amount of E. coli in the gastro-intestinal tract compared to saline controls” value (haemorrhagic E. coli; total culture scores at post-mortem, FIG. 21) was 45%. The “period of reduced bacterial shedding in faeces after challenge” value (haemorrhagic E. coli; vs saline, FIG. 14) was “day 2 through to day 4”, the “Change compared to saline treated controls: Change in clinical signs” value (haemorrhagic E. coli; ↓ (decrease)) was 63.6% and the “Change compared to saline treated controls: Change on faecal bacterial load” value (haemorrhagic E. coli; ↓ (decrease)) was 36.5%. For the same molecule, the “Change compared to saline treated controls: E. coli at post-mortem” value (haemorrhagic E. coli; ↓ (decrease)) was 44.6%, the “Change compared to saline treated controls: E. coli in foregut” value (haemorrhagic E. coli; ↓ (decrease)) was 55.4% and the “Change compared to saline treated controls: E. coli in hindgut” value (haemorrhagic E. coli; ↓ (decrease)) was 41.7%. For the same molecule, the “Change compared to saline treated controls: Presence of bacterial shedding in faeces” value (haemorrhagic E. coli; ↓ (decrease)) was 3 days, the “reduction in spirochaete culture scores at post-mortem compared to saline” value (shortened to “reduction in spirochaete culture scores”) ([2]; anterior colon) was 15.8% and the “reduction in spirochaete culture scores” value ([2]; faecal spirochaetes) was 42.1%. For the same molecule, the “reduction in spirochaete culture scores” value ([2]; posterior colon) was 47.1%, the “net reduction in spirochaetes throughout the GIT” value ([2]; vs saline) was 27% and the “faecal condition at post-mortem (clinical signs)” value ([2]; vs saline treated controls, FIG. 26) was “fewer signs of dysentery-affected faeces”. For the same molecule, the “production of the pro-inflammatory cytokines TNF, IL-8 and IL-1 (mRNA in peripheral blood)” value ([2]; vs saline treated controls, FIGS. 27, 28 and 29) was “reduce the production”, the “weight at the end of the weaner phase” value ([3]; 100 ug IL-1ra, all 3 levels of medication, FIG. 8) was “weighed more than their saline treated counterparts” and the “P2 backfat levels at slaughter” value ([3]; IL-1ra in absence of antibiotics, FIG. 13) was “comparable to those of pigs treated with saline and provided full antibiotic medication”. The “finishing weight, more than saline treated pigs” value ([3]; absence of antibiotic medication, FIG. 12) was 16.7%, the “number of pigs experiencing weight loss or mortality over the weaner period” value ([3]; absence of antibiotics, FIG. 9) was 2 out of 16 pigs and the “total group weight at the end of the weaner phase” value (“total group weight at the end” for short) ([3]; full medication) was 451 kg. For the same molecule, the “total group weight at the end” value ([3]; no medication) was 369 kg, the “increase in productivity (group weight vs saline)” value (from here on “increase in productivity”) ([3]; normal antibiotic administration) was 11.1% and the “increase in productivity” value ([3]; reduced antibiotic administration) was 20.4%. For the same molecule, the “total group weight at the end” value ([3]; reduced medication) was 390 kg, the “weight at the end of the grower phase” value ([3]; regardless of medication level, FIG. 11) was “heavier than all the saline treatment” and the “deleterious effects of continuous administration” value ([3]; twice weekly in weaner stage, weekly in grower and finisher stages) was “did not have any deleterious effects”. For the same molecule, the “increase in productivity” value ([3]; zero antibiotic administration) was 26.4%.
